In US20070259809A1 one finds thrombin inhibition (residual thrombin activity by chromogenic assay); 1 µM dose, wall shear rate 2,000 sec^-1 data, which are given here for one substance.

Bounds are passed on as bounds.

The experiment deals with human thrombin (human) (UniProt P00734). Briefly: cell-based or functional assay.

On to “recombinant DES.N135A ATIII (from UniProt P01008 33-464)”, for which the thrombin inhibition (residual thrombin activity by chromogenic assay); 1 µM dose, wall shear rate 2,000 sec^-1 was greater than 85%.
